From article PMC12691818 come the findings set out here.

Experiment [1] addresses Xenopus laevis PP1c (XePP1c) (Xenopus laevis (endogenous in oocytes)).
Experiment [2] has the same target. The source holds these as a separate data set.
Experiment [3] shares this target. This is another data set of the same source.
Experiment [4] concerns the target PfPP1c (Plasmodium falciparum Protein Phosphatase 1 catalytic subunit, recombinant) (Plasmodium falciparum) (UniProt Q8ILV1).

Consider “HA-tagged PbRpt3 protein (full-size 45 kDa native PbRpt3 translated from microinjected cRNA in Xenopus oocytes) (from UniProt A0A509AIQ8 1-395) (natural protein)”, for which the percentage of GVBD of progesterone-treated Xenopus oocytes microinjected with PbRpt3 cRNA (PG alone 86.7%) in experiment [1] came to 1.7 % GVBD. Also, the percentage of GVBD of progesterone-treated Xenopus oocytes microinjected with PbRpt3 cRNA (control 80%) in experiment [2] was determined as 1.7 % GVBD.
The substance “PbRpt3 ATP-binding site mutant (HA-tagged PbRpt3 substituted for alanines in positions K188, D241, N288 and Q356) (natural protein)” registered a percentage of GVBD of progesterone-treated Xenopus oocytes microinjected with PbRpt3 cRNA mutated for the ATP-binding sites (PbRpt3 1.7%, PG-treated oocytes 80.8%) in experiment [3] of 39.2 % GVBD.
With “PbRpt3-30 kDa (recombinant truncated PbRpt3, aa 131-395) (domain or fragment)”, the PfPP1c phosphatase activity on pNPP; 37.5 to 600 pmol PbRpt3-30 kDa preincubated with 1 µg PfPP1c; value at 600 pmol (% PP1c activity) in experiment [4] is greater than 400.
Substance “PbRpt3-KATA (HA-tagged PbRpt3 mutated 200-KVTF-203 to 200-KATA-203) (natural protein)” displayed a percentage of GVBD of progesterone-treated Xenopus oocytes microinjected with PbRpt3-KATA cRNA (control 80%) in experiment [2] of 26.6 % GVBD.
As for “PbRpt3-KATA/RKAEA (HA-tagged PbRpt3 with both RVxF motifs mutated) (natural protein)”, the percentage of GVBD of progesterone-treated Xenopus oocytes microinjected with PbRpt3-KATA/RKAEA cRNA (control 80%) in experiment [2] was 76 % GVBD.
As to “PbRpt3-RKAEA (HA-tagged PbRpt3 mutated 305-RKIEF-309 to 305-RKAEA-309) (natural protein)”, the percentage of GVBD of progesterone-treated Xenopus oocytes microinjected with PbRpt3-RKAEA cRNA (control 80%) in experiment [2] was found to be 23.3 % GVBD.
For the substance “PfI2 (inhibitor of PP1c, Plasmodium falciparum) (natural protein)”, the PfPP1c phosphatase activity on pNPP; 37.5 to 600 pmol PfI2 with 1 µg PfPP1c; value at 600 pmol in experiment [4] came out at 60%.
